125 sequences from the supplement of paper PMC9112550, “Optimization of the antimicrobial peptide Bac7 by deep mutational scanning” (BMC Biology, 2022) can be followed below.

The test system of this series is Escherichia coli TOP10. Kind of series: shrunken log2 fold change of peptide-encoding DNA abundance (4.5 h post-induction vs induction); higher = less antimicrobial activity (less host growth inhibition). Particulars: time post-induction: 4.5 h; library: site-saturation at positions 5, 18, 19, 20.
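Note: peptides expressed intracellularly from a pBAD plasmid library in pooled LB shake-flask culture, induced with 0.3% L-arabinose, DNA abundance read by NGS, three biological replicates, DESeq2 with apeglm shrinkage.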

For the sequence RRIRWRPPRLPRPRPRPNGAPRP, the “shrunken log2 fold change” value amounted to 0.161.

Consider RRIRYRPPRLPRPRPRPRNQPRP, for which the “shrunken log2 fold change” value was -0.32.

In the case of RRIRFRPPRLPRPRPRPIKKPRP, the “shrunken log2 fold change” value stood at 0.0144.

As to RRIRERPPRLPRPRPRPTEMPRP, the “shrunken log2 fold change” value turned out to be 0.0983.

On to RRIRVRPPRLPRPRPRPHGTPRP, for which the “shrunken log2 fold change” value was -0.408.

As for RRIRDRPPRLPRPRPRPCHCPRP, the “shrunken log2 fold change” value is -0.158.

Turning to RRIRQRPPRLPRPRPRPSLHPRP, the “shrunken log2 fold change” value was -0.64.

In the case of RRIRRRPPRLPRPRPRPSRLPRP, the “shrunken log2 fold change” value came out at 0.177.

For the sequence RRIRYRPPRLPRPRPRPYDWPRP, the “shrunken log2 fold change” value was -0.886.

In the case of RRIRTRPPRLPRPRPRPQITPRP, the “shrunken log2 fold change” value was -0.474.

Consider RRIRTRPPRLPRPRPRPCHLPRP, for which the “shrunken log2 fold change” value stood at 0.0039.

In the case of RRIRFRPPRLPRPRPRPGPTPRP, the “shrunken log2 fold change” value is 0.404.

For RRIRCRPPRLPRPRPRPSHKPRP, the “shrunken log2 fold change” value is -0.641.

As to RRIRGRPPRLPRPRPRPMMCPRP, the “shrunken log2 fold change” value was 0.0367.

Take RRIRPRPPRLPRPRPRPSIHPRP: the “shrunken log2 fold change” value was -0.974.

RRIRLRPPRLPRPRPRPHTNPRP: the “shrunken log2 fold change” value was -0.377.

For the sequence RRIRVRPPRLPRPRPRPLSVPRP, the “shrunken log2 fold change” value is -0.0714.

With RRIRTRPPRLPRPRPRPKVFPRP, the “shrunken log2 fold change” value was -0.0334.

As to RRIRERPPRLPRPRPRPNQWPRP, the “shrunken log2 fold change” value worked out at 0.062.

On to RRIRIRPPRLPRPRPRPDSKPRP, for which the “shrunken log2 fold change” value is -0.325.

With RRIRERPPRLPRPRPRPNAKPRP, the “shrunken log2 fold change” value is -0.134.

Consider RRIRPRPPRLPRPRPRPRANPRP, for which the “shrunken log2 fold change” value was 0.286.

On to RRIRPRPPRLPRPRPRPVAEPRP, for which the “shrunken log2 fold change” value is 0.394.

For RRIRRRPPRLPRPRPRPCSSPRP, the “shrunken log2 fold change” value is 0.0589.

Regarding RRIRGRPPRLPRPRPRPQWCPRP, the “shrunken log2 fold change” value was 0.216.

As for RRIRIRPPRLPRPRPRPGITPRP, the “shrunken log2 fold change” value is -0.182.

In the case of RRIRVRPPRLPRPRPRPTLGPRP, the “shrunken log2 fold change” value is 0.213.

Regarding RRIRYRPPRLPRPRPRPHEQPRP, the “shrunken log2 fold change” value was -0.0662.

Turning to RRIRNRPPRLPRPRPRPFVMPRP, the “shrunken log2 fold change” value was -0.0984.

For RRIRPRPPRLPRPRPRPDHQPRP, the “shrunken log2 fold change” value is -0.0869.

On to RRIRCRPPRLPRPRPRPIIKPRP, for which the “shrunken log2 fold change” value is -1.01.

Regarding RRIRPRPPRLPRPRPRPKDMPRP, the “shrunken log2 fold change” value was -0.0163.

Take RRIRHRPPRLPRPRPRPDAIPRP: the “shrunken log2 fold change” value was -0.025.

As to RRIRFRPPRLPRPRPRPNLNPRP, the “shrunken log2 fold change” value was -0.504.

As to RRIRMRPPRLPRPRPRPDMFPRP, the “shrunken log2 fold change” value was 2.25.

For the sequence RRIRVRPPRLPRPRPRPRLKPRP, the “shrunken log2 fold change” value turned out to be 3.13.

Consider RRIRNRPPRLPRPRPRPMRCPRP, for which the “shrunken log2 fold change” value is -0.123.

In the case of RRIRVRPPRLPRPRPRPSSLPRP, the “shrunken log2 fold change” value is -0.334.

Regarding RRIRVRPPRLPRPRPRPHLNPRP, the “shrunken log2 fold change” value was -0.455.

Regarding RRIRTRPPRLPRPRPRPIVPPRP, the “shrunken log2 fold change” value was -0.229.

RRIRWRPPRLPRPRPRPRDFPRP: the “shrunken log2 fold change” value was -0.031.

Take RRIRYRPPRLPRPRPRPHEEPRP: the “shrunken log2 fold change” value is -0.018.

Regarding RRIRSRPPRLPRPRPRPKFAPRP, the “shrunken log2 fold change” value came out at 0.0751.

Consider RRIRGRPPRLPRPRPRPHYKPRP, for which the “shrunken log2 fold change” value was -0.0643.

With RRIRERPPRLPRPRPRPDGWPRP, the “shrunken log2 fold change” value was 0.0267.

As to RRIRPRPPRLPRPRPRPGVFPRP, the “shrunken log2 fold change” value is 0.144.

Consider RRIRTRPPRLPRPRPRPHIMPRP, for which the “shrunken log2 fold change” value is -0.738.

For the sequence RRIRPRPPRLPRPRPRPSAGPRP, the “shrunken log2 fold change” value was 0.243.

RRIRIRPPRLPRPRPRPQPWPRP: the “shrunken log2 fold change” value came to 0.102.

RRIRARPPRLPRPRPRPGSKPRP: the “shrunken log2 fold change” value worked out at 0.227.

Take RRIRQRPPRLPRPRPRPKNFPRP: the “shrunken log2 fold change” value was -0.0816.

Regarding RRIRYRPPRLPRPRPRPLRSPRP, the “shrunken log2 fold change” value was 0.538.

In the case of RRIRNRPPRLPRPRPRPERFPRP, the “shrunken log2 fold change” value is 0.128.

As for RRIRLRPPRLPRPRPRPAVLPRP, the “shrunken log2 fold change” value was -0.0831.

As to RRIRHRPPRLPRPRPRPTYMPRP, the “shrunken log2 fold change” value is -0.435.

With RRIRWRPPRLPRPRPRPQTKPRP, the “shrunken log2 fold change” value came out at 0.434.

As for RRIRVRPPRLPRPRPRPAYRPRP, the “shrunken log2 fold change” value was -0.0828.

On to RRIRSRPPRLPRPRPRPHDAPRP, for which the “shrunken log2 fold change” value was -0.142.

RRIRMRPPRLPRPRPRPLFQPRP: the “shrunken log2 fold change” value is -0.279.

RRIRTRPPRLPRPRPRPEYDPRP: the “shrunken log2 fold change” value was -0.0227.

As to RRIRCRPPRLPRPRPRPGKPPRP, the “shrunken log2 fold change” value is 0.506.

As for RRIRCRPPRLPRPRPRPGHMPRP, the “shrunken log2 fold change” value was -0.0628.

RRIRERPPRLPRPRPRPKNVPRP: the “shrunken log2 fold change” value came to 0.0204.

Consider RRIRGRPPRLPRPRPRPWVLPRP, for which the “shrunken log2 fold change” value came out at 0.222.

RRIRIRPPRLPRPRPRPKFTPRP: the “shrunken log2 fold change” value was -0.8.

In the case of RRIRARPPRLPRPRPRPTQKPRP, the “shrunken log2 fold change” value is -0.0406.

With RRIRVRPPRLPRPRPRPRMSPRP, the “shrunken log2 fold change” value is -0.079.

Take RRIRHRPPRLPRPRPRPHKGPRP: the “shrunken log2 fold change” value was -0.277.

RRIRDRPPRLPRPRPRPGGTPRP: the “shrunken log2 fold change” value amounted to 0.454.

For the sequence RRIRDRPPRLPRPRPRPACMPRP, the “shrunken log2 fold change” value stood at 0.242.

RRIRLRPPRLPRPRPRPCSFPRP: the “shrunken log2 fold change” value was -0.051.

With RRIRNRPPRLPRPRPRPMRPPRP, the “shrunken log2 fold change” value amounted to 0.537.

On to RRIRLRPPRLPRPRPRPRFTPRP, for which the “shrunken log2 fold change” value turned out to be 0.0165.

Regarding RRIRCRPPRLPRPRPRPMIHPRP, the “shrunken log2 fold change” value is -0.466.

For RRIRNRPPRLPRPRPRPLTSPRP, the “shrunken log2 fold change” value is -0.0977.

As to RRIRQRPPRLPRPRPRPLHLPRP, the “shrunken log2 fold change” value was -0.617.

Consider RRIRSRPPRLPRPRPRPLTVPRP, for which the “shrunken log2 fold change” value was -0.216.

In the case of RRIRDRPPRLPRPRPRPSGSPRP, the “shrunken log2 fold change” value is -0.00469.

Take RRIRTRPPRLPRPRPRPSILPRP: the “shrunken log2 fold change” value was -0.781.

Regarding RRIRGRPPRLPRPRPRPMMFPRP, the “shrunken log2 fold change” value came to 0.69.

For RRIRERPPRLPRPRPRPEASPRP, the “shrunken log2 fold change” value was -0.0341.

For the sequence RRIRNRPPRLPRPRPRPEQMPRP, the “shrunken log2 fold change” value was -0.0261.

For RRIRCRPPRLPRPRPRPANIPRP, the “shrunken log2 fold change” value was -0.443.

As for RRIRQRPPRLPRPRPRPDLPPRP, the “shrunken log2 fold change” value was -0.134.

In the case of RRIRERPPRLPRPRPRPLYAPRP, the “shrunken log2 fold change” value was -0.101.

With RRIRLRPPRLPRPRPRPCNDPRP, the “shrunken log2 fold change” value was -0.101.

With RRIRQRPPRLPRPRPRPIYSPRP, the “shrunken log2 fold change” value was -0.1.

In the case of RRIRFRPPRLPRPRPRPQRTPRP, the “shrunken log2 fold change” value is -0.101.

On to RRIRTRPPRLPRPRPRPMIWPRP, for which the “shrunken log2 fold change” value is -0.0322.

On to RRIRSRPPRLPRPRPRPGGCPRP, for which the “shrunken log2 fold change” value was 0.304.

As for RRIRQRPPRLPRPRPRPQHTPRP, the “shrunken log2 fold change” value was -0.69.

Regarding RRIRFRPPRLPRPRPRPWTIPRP, the “shrunken log2 fold change” value was -0.238.

In the case of RRIRNRPPRLPRPRPRPQSWPRP, the “shrunken log2 fold change” value was -0.0543.

RRIRHRPPRLPRPRPRPFVQPRP: the “shrunken log2 fold change” value is -0.14.

As for RRIRDRPPRLPRPRPRPKQLPRP, the “shrunken log2 fold change” value came to 0.217.

As to RRIRFRPPRLPRPRPRPKYSPRP, the “shrunken log2 fold change” value is -0.14.

Take RRIRYRPPRLPRPRPRPYFCPRP: the “shrunken log2 fold change” value was -1.09.

Consider RRIRYRPPRLPRPRPRPYGDPRP, for which the “shrunken log2 fold change” value was -0.525.

In the case of RRIRLRPPRLPRPRPRPNHQPRP, the “shrunken log2 fold change” value was -0.19.

For the sequence RRIRLRPPRLPRPRPRPSVVPRP, the “shrunken log2 fold change” value was -0.196.

Turning to RRIRPRPPRLPRPRPRPDHPPRP, the “shrunken log2 fold change” value was -0.147.

For the sequence RRIRNRPPRLPRPRPRPGFVPRP, the “shrunken log2 fold change” value amounted to 0.135.

Regarding RRIRSRPPRLPRPRPRPFNSPRP, the “shrunken log2 fold change” value is -0.116.

As to RRIRWRPPRLPRPRPRPLSLPRP, the “shrunken log2 fold change” value was 0.0175.

In the case of RRIRGRPPRLPRPRPRPHCHPRP, the “shrunken log2 fold change” value amounted to 0.284.

With RRIRMRPPRLPRPRPRPLKRPRP, the “shrunken log2 fold change” value came to 0.0303.

Take RRIRDRPPRLPRPRPRPHKVPRP: the “shrunken log2 fold change” value was -0.0568.

As for RRIRKRPPRLPRPRPRPSQQPRP, the “shrunken log2 fold change” value is 0.312.

For RRIRLRPPRLPRPRPRPWDPPRP, the “shrunken log2 fold change” value was -0.125.

Turning to RRIRPRPPRLPRPRPRPYSMPRP, the “shrunken log2 fold change” value was -1.43.

Consider RRIRRRPPRLPRPRPRPWYFPRP, for which the “shrunken log2 fold change” value is -0.204.

As to RRIRGRPPRLPRPRPRPQGFPRP, the “shrunken log2 fold change” value was 0.441.

In the case of RRIRIRPPRLPRPRPRPEVCPRP, the “shrunken log2 fold change” value amounted to 0.503.

On to RRIRVRPPRLPRPRPRPSPKPRP, for which the “shrunken log2 fold change” value was determined as 0.24.

Turning to RRIRIRPPRLPRPRPRPSIQPRP, the “shrunken log2 fold change” value was -0.252.

Regarding RRIRWRPPRLPRPRPRPWNCPRP, the “shrunken log2 fold change” value is -0.116.

Regarding RRIRFRPPRLPRPRPRPQWVPRP, the “shrunken log2 fold change” value is -0.053.

Regarding RRIRYRPPRLPRPRPRPVHDPRP, the “shrunken log2 fold change” value was -0.372.

On to RRIRLRPPRLPRPRPRPFQGPRP, for which the “shrunken log2 fold change” value was determined as 0.0498.

On to RRIRCRPPRLPRPRPRPHTHPRP, for which the “shrunken log2 fold change” value was -0.676.

On to RRIRLRPPRLPRPRPRPNKFPRP, for which the “shrunken log2 fold change” value is -0.206.

In the case of RRIRHRPPRLPRPRPRPQIEPRP, the “shrunken log2 fold change” value is -0.24.

Take RRIRCRPPRLPRPRPRPDTDPRP: the “shrunken log2 fold change” value is -0.0352.

For the sequence RRIRARPPRLPRPRPRPVRPPRP, the “shrunken log2 fold change” value was 0.602.

In the case of RRIRKRPPRLPRPRPRPPQAPRP, the “shrunken log2 fold change” value came out at 0.0481.
